Experimental data taken from the supplement of paper PMC9170038.

Tested on: MS2 coat protein
Assay: apparent KD of MS2 coat protein; designed switch direction (-1 OFF switch, 1 ON switch): -1; higher = weaker reporter binding
Summary of the method: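 An oligonucleotide input, 200 uM small-molecule ligand, or no input was present during titration of SNAP-549-labelled MS2 coat protein, which was doubled from 0.7 or 1.5 nM to 3 µM. Designed RNA switches had been transcribed on Illumina chips by stalled E. coli RNA polymerase. Apparent KD per design is the median over clusters of curves fitted to normalised cluster fluorescence.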

[1] = Eterna round: R95, input ligand: microRNA oligo, concentration not stated
[2] = input ligand: microRNA oligo, concentration not stated
[3] = Eterna round: R95, input ligand: FMN 200 uM
[4] = Eterna round: R95, input ligand: none

CUAUUGUGAGGAUAUCAGUAGUAGAACAAUAGUACUACUACUGAGAAGGCACAUGAGGAUCACCCAUGUUCCUC [Fiskers Ex 4 Super stable 44 mod 7] (puzzle: Exclusion 4)
apparent KD of MS2 coat protein [1]: 57.3 nM

CCGCAAAUGGAGGAUAUCGUAUCGGAUACGAUACGAGAAGGCUAAACAUGAGGAUCACCCAUGUGUCCUAGCGG [Fiskers Ex 6 - 34] (puzzle: Exclusion 6)
apparent KD of MS2 coat protein [1]: 10.9 nM

AAUAAUCAUGUAGGAUAUGCGUGGCAAAGCUAUGCAGAAGGACAUGAGGAUCACCCAUGUUCUAGCGUCUGCGUACAGAUGCUA [Mat - Exclusion NG 1 - Mod of JL - D80] (Eterna round: R96, puzzle: Exclusion NG 1)
apparent KD of MS2 coat protein (input ligand: FMN 200 uM): 246 nM | apparent KD of MS2 coat protein [2]: 29.1 nM | apparent KD of MS2 coat protein (input ligand: none): 37.2 nM

GCAGUUCGAGUUAGGAUAUGAUGUUAAUUCGGAUAUCAGAAGGAACUUGAGGAUCACCCAAGUAUAGAUGUUGU [JR_BMEx4_Sub061] (Eterna round: R97, puzzle: Brourd's mod of Exclusion 4)
apparent KD of MS2 coat protein (input ligand: FMN 200 uM): 31.3 nM | apparent KD of MS2 coat protein (input ligand: none): 19.8 nM

UUUUUAAAUGAAGGAUAUACUUAACAUGAGGAUCACCCAUGUGGUGUUGUGAGUGAGUGAGUUUAGUAGAAGGUCAAUUAUUUU [JMF's solution 20] (Eterna round: R96, puzzle: Exclusion NG 2)
apparent KD of MS2 coat protein (input ligand: FMN 200 uM): 1020 nM | apparent KD of MS2 coat protein [2]: 287 nM | apparent KD of MS2 coat protein (input ligand: none): 288 nM

AAUAACAGAGGAUAUACUAUUUUAUGUGUUUGUUAUUUUAAACAUGAGGAUCACCCAUGUAGAAGGCUGAUUAA [JMF 44] (puzzle: Exclusion 2)
apparent KD of MS2 coat protein [1]: 38.5 nM

GCUAGUCAUGUCAGGAUAUGCAGAUCCUUGGAUCUGCAGAAGGGACAUGAGGAUCACCCAUGUGCCUAACUAGC [Mat - Exclusion 4 - JL Mod - D14] (Eterna round: R97, puzzle: Brourd's mod of Exclusion 4)
apparent KD of MS2 coat protein (input ligand: FMN 200 uM): 479 nM | apparent KD of MS2 coat protein (input ligand: none): 41.6 nM

CGGGCCGGCCUUCCGGCCGGCCCGACAUGAGGAUCACCCAUGUAGGAUAUCCCGGCUGCCGGCCGGGAGAAGGGCGUGCGCUUU [-47.6, -45.1 kcal, 14% A] (Eterna round: R96, puzzle: Exclusion NG 3)
apparent KD of MS2 coat protein (input ligand: FMN 200 uM): 36.5 nM | apparent KD of MS2 coat protein [2]: 20.8 nM | apparent KD of MS2 coat protein (input ligand: none): 36.5 nM

UAGGAGUCAGGAUAUGCGAGAGAUUGAAGUAUGGGAAGUGAGCAGAAGGGACAUGAGGAUCACCCAUGUGAGAA [JR_Exclu4_Sub094] (puzzle: Exclusion 4)
apparent KD of MS2 coat protein [3]: 52.1 nM | apparent KD of MS2 coat protein [1]: 46.8 nM | apparent KD of MS2 coat protein [4]: 45 nM

AGUUCACAUGAGGAUCACCCAUGUGAGGAUAUGGAUUCGCUGGCCGUAGCCAGUGGAUCCAGAAGGCGCAUGAU [JL-ex1-4.14] (Eterna round: R97, puzzle: Exclusion 1)
apparent KD of MS2 coat protein (input ligand: FMN 200 uM): 36.9 nM | apparent KD of MS2 coat protein (input ligand: none): 32 nM

AAAUAAUAGAUAAAAUAAAACAUGAGGAUCACCCAUGUGGGAAGAUGAGGGUGAAACAAGCUUUUUGCUCGUCUUAU (puzzle: Sensor v3, turn-off variant 1)
apparent KD of MS2 coat protein [3]: 37.8 nM | apparent KD of MS2 coat protein [1]: 754 nM | apparent KD of MS2 coat protein [4]: 46.7 nM

AAAUCCGCUGAGGAUAUUAUCAGUGAGAGCUGAUGAGAAGGCGGUACAUGAGGAUCACCCAUGUCUAUGGGCAA [Ex-6 Malc#25] (puzzle: Exclusion 6)
apparent KD of MS2 coat protein [3]: 358 nM | apparent KD of MS2 coat protein [1]: 208 nM | apparent KD of MS2 coat protein [4]: 295 nM

GGAAGAAUGAGUAGUCCUCAUUGAAGAGAAUAGUAAGAAACAUGAGGAUCACCCAUGUAAGAACAAGCUUUUGCUCA [JR_Sv3TOV2_Sub003] (puzzle: Sensor v3, turn-off variant 2)
apparent KD of MS2 coat protein [3]: 227 nM | apparent KD of MS2 coat protein [1]: 85 nM | apparent KD of MS2 coat protein [4]: 179 nM

UCUAUUUUGCGAGGAUAUCGACCAUUCCUCUUUACAUGAGGAUCACCCAUGUUCUUUUUCUACAACGAGAAGGCGCUCUAAGUU [JR_ExcNG2_Sub061] (Eterna round: R96, puzzle: Exclusion NG 2)
apparent KD of MS2 coat protein (input ligand: FMN 200 uM): 71.9 nM | apparent KD of MS2 coat protein [2]: 65 nM | apparent KD of MS2 coat protein (input ligand: none): 59.1 nM

GGCAGCUCAGGAUAUAGUUAAAACGACAUGAGGAUCACCCAUGUGACUGAUAUGCGGCGCCUAGAAGGGAGGUGCC [Xeusisso] (puzzle: Exclusion 5)
apparent KD of MS2 coat protein [1]: 14.6 nM

AGUACUGACACGAAAGUGUUAGUACAAUAAGCUUGUGAAACAUGAGGAUCACCCAUGUCCUCAUAAGCUCGUCUUAU [salish99_TOv2_r3_017] (puzzle: Sensor v3, turn-off variant 2)
apparent KD of MS2 coat protein [3]: 16 nM | apparent KD of MS2 coat protein [1]: 1200 nM | apparent KD of MS2 coat protein [4]: 13.8 nM

AAGUACCGUCACGAUAGUGAUGGUACAACAAGCAAAUACACAUGAGGAUCACCCAUGUCCUCUUUUGCUCGUCUUGU [Sensor 3 - 0] (puzzle: Sensor v3, turn-off variant 2)
apparent KD of MS2 coat protein [3]: 674 nM | apparent KD of MS2 coat protein [1]: 236 nM | apparent KD of MS2 coat protein [4]: 767 nM

AGUUGGCGAGGAUAUACAUGAGGAUCACCCAUGUAAAAAAAAAAAAAAAAAACUUCAUGUAGAAGGCGCUGACA [Starry Exclusion 3.4 (biggestlegoheroicafanever round 1 mod)] (Eterna round: R96, puzzle: Exclusion 3)
apparent KD of MS2 coat protein (input ligand: FMN 200 uM): 327 nM | apparent KD of MS2 coat protein [2]: 200 nM | apparent KD of MS2 coat protein (input ligand: none): 373 nM

AGGUGUAGAGGAUAUCGAGUCCUUUACAUGAGGAUCACCCAUGUCCUGGGCACCCAGGACCGAGAAGGCUACACCA [Omei Ex5 D32] (Eterna round: R97, puzzle: Exclusion 5)
apparent KD of MS2 coat protein (input ligand: FMN 200 uM): 353 nM | apparent KD of MS2 coat protein (input ligand: none): 223 nM

AUUUAGCAAGUCAGAUCCUACAUGAGGAUCACCCAUGUUGUUCGUCUUAUUUGAAGACAACACAAAAGUGUUGUCUU [Omei Mir OFFv1 B5] (Eterna round: R97, puzzle: Sensor, turn-off variant 1)
apparent KD of MS2 coat protein (input ligand: FMN 200 uM): 79.9 nM | apparent KD of MS2 coat protein (input ligand: none): 77 nM

UUAGAUAGGUCAGGAUAUCGAUGAUUGAAUAGUAUGAUUUACAUGAGGAUCACCCAUGUUAAAUACGAGAAGGGACGUUAGAUU [JR_ExcNG2_Sub021] (Eterna round: R96, puzzle: Exclusion NG 2)
apparent KD of MS2 coat protein (input ligand: FMN 200 uM): 17.9 nM | apparent KD of MS2 coat protein [2]: 17.9 nM | apparent KD of MS2 coat protein (input ligand: none): 21.3 nM

CAUACACAUGAGGAUCACCCAUGUGAGGAUAUGCGUACGUUGUCCGUAGGCGACGUGCGCAGAAGGCGCGUGAG [JL-ex1-3.14 Eli mod] (puzzle: Exclusion 1)
apparent KD of MS2 coat protein [1]: 45.3 nM

GCGGAGAGAGAAGGAUAUUGAAAUGCUUCUACAUGAGGAUCACCCAUGUUCGGCAGACAUGGGACCAAGAAGGUCUAUGUCGCG [Eternabot solution 27] (Eterna round: R96, puzzle: Exclusion NG 2)
apparent KD of MS2 coat protein (input ligand: FMN 200 uM): 70.2 nM | apparent KD of MS2 coat protein [2]: 40.4 nM | apparent KD of MS2 coat protein (input ligand: none): 55.4 nM

AUUUAGAGAGGAUAUAUAUUUUAAAACAUGAGGAUCACCCAUGUAAUUUUAUGGGAGUAAAUAGAAGGCUCAUUUA [JMFs Solution 2] (puzzle: Exclusion 5)
apparent KD of MS2 coat protein [3]: 54.3 nM | apparent KD of MS2 coat protein [1]: 52.8 nM | apparent KD of MS2 coat protein [4]: 53.1 nM

UUGUUAUAUGAAGGAUAUACUUAACAUGAGGAUCACCCAUGUGGUGUUGUGAGUGAGUGAGUUUAGUAGAAGGUCAAUUAUUUU [JMF's solution 29] (Eterna round: R96, puzzle: Exclusion NG 2)
apparent KD of MS2 coat protein (input ligand: FMN 200 uM): 1340 nM | apparent KD of MS2 coat protein [2]: 380 nM | apparent KD of MS2 coat protein (input ligand: none): 492 nM
